Assay results from the supplement of paper PMC10567573.

B1: KIAA0774 (parent)
chain: FEDEVKRLGWQQQAELQELEERLQ

Variants of: B1
Test: protein stability index of a GFP-peptide fusion (GPS, HEK-293T) (PSI 1-6); higher = more stable
Conditions: c terminus: a fixed tail appended
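Further: lentivirally expressed fusions sorted by FACS into six bins by GFP to DsRed ratio, PSI derived from sequencing read proportions per bin multiplied by bin number.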

Variant	protein stability index
FEDEVKRLVWQQQAELQELEERLQ	4.02
FEDEVKRLQWQQQAELQELEERLQ	3.83
FEDEVKRLFWQQQAELQELEERLQ	3.96
FEDEVKRLNWQQQAELQELEERLQ	2.62
FEDEVKRLCWQQQAELQELEERLQ	3.36
FEDEVKRLPWQQQAELQELEERLQ	4.17
FEDEVKRLDWQQQAELQELEERLQ	3.9
FEDEVKRLEWQQQAELQELEERLQ	4.63
FEDEVKRLWWQQQAELQELEERLQ	3.54
FEDEVKRLHWQQQAELQELEERLQ	4.11
FEDEVKRLLWQQQAELQELEERLQ	3.15
FEDEVKRLIWQQQAELQELEERLQ	3.73
FEDEVKRLRWQQQAELQELEERLQ	3.75
FEDEVKRLYWQQQAELQELEERLQ	4.13
FEDEVKRLSWQQQAELQELEERLQ	1.91
FEDEVKRLMWQQQAELQELEERLQ	3.13
FEDEVKRLTWQQQAELQELEERLQ	2.04
FEDEVKRLAWQQQAELQELEERLQ	3.83
FEDEVKRLKWQQQAELQELEERLQ	3.23
FEDEVKRLGAQQQAELQELEERLQ	5.49
FEDEVKRLGGQQQAELQELEERLQ	5.07
FEDEVKRLGFQQQAELQELEERLQ	4.41
FEDEVKRLGHQQQAELQELEERLQ	5.09
FEDEVKRLGDQQQAELQELEERLQ	5.8

Variant	protein stability index
FEDEVKRLGMQQQAELQELEERLQ	5.65
FEDEVKRLGNQQQAELQELEERLQ	5.54
FEDEVKRLGIQQQAELQELEERLQ	4.66
FEDEVKRLGCQQQAELQELEERLQ	4.97
FEDEVKRLGKQQQAELQELEERLQ	5.13
FEDEVKRLGLQQQAELQELEERLQ	5.35
FEDEVKRLGEQQQAELQELEERLQ	5.57
FEDEVERLGWQQQAELQELEERLQ	4.67
FEDEVRRLGWQQQAELQELEERLQ	4.03
FEDEVTRLGWQQQAELQELEERLQ	4.31
FEDEVQRLGWQQQAELQELEERLQ	4.07
FEDEVYRLGWQQQAELQELEERLQ	4.4
FEDEVIRLGWQQQAELQELEERLQ	3.39
FEDEVLRLGWQQQAELQELEERLQ	4.12
FEDEVPRLGWQQQAELQELEERLQ	4.48
FEDEVDRLGWQQQAELQELEERLQ	3.75
FEDEVHRLGWQQQAELQELEERLQ	4.14
FEDEVMRLGWQQQAELQELEERLQ	4.17
FEDEVWRLGWQQQAELQELEERLQ	3.89
FEDEVFRLGWQQQAELQELEERLQ	4.38
FEDEVVRLGWQQQAELQELEERLQ	4.52
FEDEVARLGWQQQAELQELEERLQ	4.54
FEDEVSRLGWQQQAELQELEERLQ	4.47
FEDEVGRLGWQQQAELQELEERLQ	4.5

Variant	protein stability index
FEDEVNRLGWQQQAELQELEERLQ	4.16
FEDEVCRLGWQQQAELQELEERLQ	3.87
FEDEVKRNGWQQQAELQELEERLQ	3.48
FEDEVKRFGWQQQAELQELEERLQ	3.98
FEDEVKRTGWQQQAELQELEERLQ	3.93
FEDEVKRIGWQQQAELQELEERLQ	3.86
FEDEVKRSGWQQQAELQELEERLQ	3.88
FEDEVKREGWQQQAELQELEERLQ	4.52
FEDEVKRRGWQQQAELQELEERLQ	4.05
FEDEVKRMGWQQQAELQELEERLQ	2.83
FEDEVKRAGWQQQAELQELEERLQ	3.66
FEDEVKRYGWQQQAELQELEERLQ	3.72
FEDEVKRVGWQQQAELQELEERLQ	4.25
FEDEVKRHGWQQQAELQELEERLQ	3.79
FEDEVKRQGWQQQAELQELEERLQ	4.48
FEDEVKRWGWQQQAELQELEERLQ	3.4
FEDEVKRGGWQQQAELQELEERLQ	3.42
FEDEVKRDGWQQQAELQELEERLQ	4.77
FEDEVKRPGWQQQAELQELEERLQ	4.45
FEDEVKRKGWQQQAELQELEERLQ	3.57
FEDEYKRLGWQQQAELQELEERLQ	4.24
FEDESKRLGWQQQAELQELEERLQ	3.47
FEDEQKRLGWQQQAELQELEERLQ	4.13
FEDEWKRLGWQQQAELQELEERLQ	3.5

Variant	protein stability index
FEDEPKRLGWQQQAELQELEERLQ	4.01
FEDETKRLGWQQQAELQELEERLQ	3.5
FEDERKRLGWQQQAELQELEERLQ	2.75
FEDEVKILGWQQQAELQELEERLQ	3.67
FEDEVKSLGWQQQAELQELEERLQ	4.65
FEDEVKELGWQQQAELQELEERLQ	4.53
FEDEVKLLGWQQQAELQELEERLQ	3.68
FEDEVKMLGWQQQAELQELEERLQ	4.41
FEDEVKFLGWQQQAELQELEERLQ	4.32
FEDEVKALGWQQQAELQELEERLQ	4.65
FEDEVKKLGWQQQAELQELEERLQ	3.32
FEDEVKCLGWQQQAELQELEERLQ	4.61
FEDEVKVLGWQQQAELQELEERLQ	3.9
FEDEVKHLGWQQQAELQELEERLQ	4.04
FEDEVKQLGWQQQAELQELEERLQ	4.79
FEDEVKYLGWQQQAELQELEERLQ	4.21
FEDEVKNLGWQQQAELQELEERLQ	4.12
FEDEVKDLGWQQQAELQELEERLQ	4.89
FEDEVKWLGWQQQAELQELEERLQ	4.03
FEDEVKTLGWQQQAELQELEERLQ	4.45
FEDEVKPLGWQQQAELQELEERLQ	4.19
FEDEVKGLGWQQQAELQELEERLQ	4.9
